In patent US20250051409A1, “MODULATORS OF PHOSPHATIDYLSERlNE DECARBOXYLASE AND USE THEREOF” (THE NATIONAL INSTITUTE FOR BIOTECHNOLOGY IN THE NEGEV LTD., priority 2021, published 2025) one finds IC50 and Kd data, which are given here for one molecule.

The target of assay [1] is T1, phosphatidylserine decarboxylase (PSD) (Homo sapiens, UniProt Q9UG56).
T1 construct: Purified recombinant protein (full length) of human phosphatidylserine decarboxylase (PSD); His tag (N); purchased Acris-OriGene; host or cells: E. coli
T1 sequence (Q9UG56 53-409): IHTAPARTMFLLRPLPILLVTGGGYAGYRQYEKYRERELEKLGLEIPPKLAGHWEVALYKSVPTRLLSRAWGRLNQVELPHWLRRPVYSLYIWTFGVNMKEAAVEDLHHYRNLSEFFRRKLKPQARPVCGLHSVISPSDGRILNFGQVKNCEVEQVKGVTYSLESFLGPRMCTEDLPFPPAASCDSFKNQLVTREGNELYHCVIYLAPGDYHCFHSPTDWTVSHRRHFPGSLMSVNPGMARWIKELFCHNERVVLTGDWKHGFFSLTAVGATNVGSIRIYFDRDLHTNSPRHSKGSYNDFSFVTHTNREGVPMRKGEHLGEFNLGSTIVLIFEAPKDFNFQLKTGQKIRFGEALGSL
Nature of the assay: PSD activity inhibition, DSB-3 method. It counts as biochemical. Particulars: read-out: IC50 of SMAC inhibiting PSD activity. The protocol: PE content in the lipid samples was measured as described previously (Choi J Y, et al. 2018. J Biol Chem 293, 1493-1503). Briefly, solvent was evaporated from the lipid samples under nitrogen gas, and samples were re-suspended in 0.8 mM Triton X-100. Sample aliquots were added to 96-well plates containing (50 μl) reaction mixture (80 mM NaCl, 2 mM K2HPO4, pH 7.4), and borate buffer (12.5 μl) (100 mM boric acid, 75 mM NaCl, 25 mM sodium tetraborate, pH 9). After mixing, 12.5 μl of 100 μM DSB-3, in 10 mM K2HPO4 (pH 7.4), were added and incubated for 2 h in the dark with shaking (100 rpm). Fluorescence was measured using excitation λex=403 nm and emission λem=508 nm. A calibration curve was obtained using PE (Biovision, CA) as a standard.
To determine PSD activity, purified enzyme (0.2-0.4 μM) or crude cell lysate (0.25-0.5 μg of protein) was incubated with PS (50 μM) for 45 min at 30° C. in the dark with shaking under the conditions described above for PE determination. PSD activity was measured by determining the PE produced as described above, except that the signal obtained in the absence of substrate PS (representing endogenous PE) was subtracted from the signal obtained in the presence of PS.
(§1) Human recombinant SMAC (10339-H08E) was produced by Sino Biologicals (Wayne, PA, USA). […]

The target in assay [2] is T1, phosphatidylserine decarboxylase (PSD). The assay can be described thus: MST interaction of purified SMAC with purified PSD. It counts as binding. The following applies: SMAC 1 μM, PSD 78-625 nM, 30 min at 37° C., read-out: dissociation constant (Kd) of PSD interaction with SMAC. The protocol:
(A) Representative IF images for SMAC and PSD colocalization in A549 cells. Scale bars represent 10, 2.5 μm, as indicated. (B) PLA assay showing direct interaction between SMAC and PSD in A549 cells (scale bar represent 10 μm). Immunoblot (C) and quantitative analysis cells (D) of PSD and SMAC expression levels relative to WI-38 (n=3). PSD activity (n=6) (E) and PE levels (n=6) (F) were analyzed in the indicated cell lines. (G) Purified PSD and SMAC used in this study. (H) PSD interaction with SMAC analyzed using the MST method (n=4). Purified SMAC was fluorescently labelled with the NanoTemper BLUE protein-labelling kit. SMAC (1 μM) was incubated with purified PISD (78-625 nM) for 30 min at 37° C., then thermophoresis was measured as described in the Materials and Methods section hereinbelow. […] (I) Inhibition of PSD activity by SMAC, as measured using the DSB-3 method (n=4). Results are the mean±SEM. *P≤0.05; **P≤0.01; ***P≤0.001; NS, nonsignificant.
as §1
MST analysis was performed using a NanoTemper Monolith NT.115 apparatus as described earlier (Wienken C J, et al., 2010. Nat Commun 1, 100). […] After a 30-min incubation, 8 μl of the samples were loaded into a glass capillary (Monolith NT Capillaries), and thermophoresis was analyzed (LED 20%, IR laser 20%).

For orientation: IC50 means the concentration needed to halve the response being measured. Usually Kd stands for the constant that tells how readily two partners part at equilibrium.

B1: SMAC: Human recombinant SMAC (10339-H08E) produced by Sino Biologicals (protein)
chain: AVPIAQKSEPHSLSSEALMRRAVSLVTDSTSTFLSQTTYALIEAITEYTKAVYTLTSLYRQYTSLLGKMNSEEEDEVWQVIIGARAEMTSKHQEYLKLETTWMTAVGLSEMAAEAAYQTGADQASITARNHIQLVKLQVEEVHQLSRKAETKLAEAQIEELRQKTQEEGEERAESEQEAYLRED
Regarding B1, the IC50 in assay [1] was found to be 400 nM. For the same molecule, the Kd in assay [2] stood at 246 nM.
